Molecular target: T1, T4 Dda E94C/A360C (Enterobacteria phage T4, UniProt P32270 SEQ:1-439, E94C/A360C/(ΔM1)G1G2)
T1 sequence: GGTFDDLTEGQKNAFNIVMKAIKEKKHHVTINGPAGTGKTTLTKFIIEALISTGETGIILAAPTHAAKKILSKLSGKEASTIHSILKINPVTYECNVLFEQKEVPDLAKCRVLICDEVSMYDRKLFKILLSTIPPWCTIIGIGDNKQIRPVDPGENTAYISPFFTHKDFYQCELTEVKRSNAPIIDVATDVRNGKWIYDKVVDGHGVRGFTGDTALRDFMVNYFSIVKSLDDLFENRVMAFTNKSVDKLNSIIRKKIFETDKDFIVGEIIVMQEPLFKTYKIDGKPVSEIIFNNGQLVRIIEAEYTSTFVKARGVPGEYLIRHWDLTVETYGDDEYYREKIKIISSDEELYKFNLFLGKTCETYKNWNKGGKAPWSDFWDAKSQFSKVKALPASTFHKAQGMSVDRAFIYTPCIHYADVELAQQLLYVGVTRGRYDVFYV
Assay: FP; 25 mM potassium phosphate, 151.5 mM KCl, pH 8.0, 10 mM MgCl2, 25 C, 60 min; exact value only in figure
Settings: label: FAM on thymine 37
Method: Two custom fluorescent substrates were used to assess the ability of T4 Dda—E94C/A360C helicase to bind to linear (SEQ ID NO: 64) and circular (SEQ ID NO: 65) single-stranded DNA. […] As the helicase bound to either fluorescent substrate in a buffered solution (25 mM potassium phosphate, 151.5 mM KCl, pH8.0, 10 mM MgCl₂), the fluorescence anisotropy (a property relating to the speed of tumbling of the DNA substrate in solution) increased. The lower the amount of helicase needed to effect an increase in anisotropy, the tighter the binding affinity between the DNA and helicase (FIG. 3).
T4 Dda—E94C/A360C was buffer exchanged into the binding buffer (25 mM potassium phosphate, 151.5 mM KCl, pH8.0, 10 mM MgCl₂) and then serially diluted over a concentration range of 0.02 nM to 750 nM. Each sample concentration was then mixed with linear or circular single-stranded DNA (1 nM of SEQ ID NO: 64 or 65) giving a final concentration range of T4 Dda—E94C/A360C of 0.01 nM to 375 nM and the fluorescence anisotropy assessed over the course of 60 min at 25° C.

Q: For TTTTTTTTTTTTTTTTTTTTTTTTTTTTTTTTTTTTTTTTTTTT (ssDNA) [44 nt linear ssDNA], which Kd is on record?
A: The Kd was < 15 nM.
